Reference: US11819531B2, “Multifunctional zwitterionic polymer conjugates” (Kodiak Sciences Inc., priority 2009, dated 2023)

Test system: Liver esterase from rabbit liver
Assay: Camptothecin release study from camptothecin grafted copolymer (esterase incubation, GPC at 370 nm)
Assay type: in vitro ADME
Conditions: copolymer approximately 10 mg/ml in Tris Buffer, pH=8.0, rabbit liver esterase, 37° C.
Protocol: Samples of camptothecin grafted copolymer were prepared at approximately 10 mg/ml in Tris Buffer, pH=8.0. Liver esterase from rabbit liver (Sigma-Aldrich E0887-IKU, Lot #061K74451) was added to the sample and the sample was incubated at 37° C. for up to 65 hours.
GPC analysis of the samples was made using an HPLC system consisting of a Waters Alliance 2995 with Waters 2410 Refractive Index Detector, Waters 2996 Photodiode Array Detector, and a Shodex Protein KW-803 column. The mobile phase used for the elution was phosphate buffered saline containing 10% absolute ethanol. The flow rate was set to 1 ml/min and the presence of camptothecin monitored at 370 nm. Ten microliter injections of the samples were made at each time point.

Substance: Camptothecin PC-Copolymer [camptothecin grafted copolymer]
- Camptothecin Released (Time 0 h): 0.059 mg/mL
- Camptothecin Released (Time 1 h): 0.079 mg/mL
- Camptothecin Released (Time 2 h): 0.132 mg/mL
- Camptothecin Released (Time 3 h): 0.130 mg/mL
- Camptothecin Released (Time 4 h): 0.128 mg/mL
- Camptothecin Released (Time 17 h): 0.208 mg/mL
- Camptothecin Released (Time 26 h): 0.251 mg/mL
- Camptothecin Released (Time 41 h): 0.335 mg/mL
- Camptothecin Released (Time 65 h): 0.427 mg/mL
